Test results as given in patent US20210214410A1 (Stanford University, published 2021).

T1: human interleukin 13 receptor alpha 2 (IL-13Rα2), biotinylated (human, UniProt Q14627 27-343, limits assumed, biotinylated (site not stated))
T1 construct: The methods give construct limits only for IL-13Rα1 and IL-4Rα1; For IL-13Rα2 they say only that the biotinylated receptor was captured on the SA chip; also called IL13RA2; CD213a2
T1 sequence (looked up): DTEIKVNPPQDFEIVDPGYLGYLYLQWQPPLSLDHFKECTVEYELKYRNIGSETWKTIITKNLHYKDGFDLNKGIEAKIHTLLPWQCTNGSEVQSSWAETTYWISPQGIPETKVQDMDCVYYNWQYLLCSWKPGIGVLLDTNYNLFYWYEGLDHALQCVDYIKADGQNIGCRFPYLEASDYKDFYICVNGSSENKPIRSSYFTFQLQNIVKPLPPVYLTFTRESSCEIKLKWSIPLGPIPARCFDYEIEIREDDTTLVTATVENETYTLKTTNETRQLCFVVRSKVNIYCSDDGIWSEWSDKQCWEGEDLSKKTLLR


Columns and labels:
[1] = target: human interleukin 13 receptor alpha 1 (IL-13Rα1), biotinylated ectodomain (human) (UniProt P78552); assay: SPR, kinetic fit
[2] = target: human interleukin 13 receptor alpha 1 (IL-13Rα1), biotinylated ectodomain (human) (UniProt P78552); assay: SPR (Biacore T100), biotinylated receptor on SA chip, 1:1 kinetic fit
[3] = target: human interleukin 13 receptor alpha 2 (IL-13Rα2), biotinylated (human) (UniProt Q14627); assay: flow cytometry, PE-labelled mouse IgG1, live U87 cells
[4] = target: human interleukin 13 receptor alpha 2 (IL-13Rα2), biotinylated (human) (UniProt Q14627); assay: flow cytometry, PE-labelled mouse IgG1, live SKOV3 cells
[5] = target: T1, human interleukin 13 receptor alpha 2 …; assay: SPR (Biacore T100), biotinylated receptor on SA chip, 1:1 kinetic fit
Description: (§1) Surface Plasmon Resonance. SPR experiments were conducted on a Biacore T100 instrument. Experiments used a Biacore SA sensor chip (GE Healthcare). Biotinylated IL-13Rα1 and IL-13Rα2 receptors were captured at a low density (100-200 RU) and kinetic runs were conducted at 40 μL/min. An unrelated biotinylated protein was immobilized as a reference surface for the SA sensor chip with matching RU to the experimental surface. All data was analyzed using the Biacore T100 evaluation software version 2.0 with a 1:1 Langmuir binding model. Serial dilutions of unbiotinylated IL-13 variants in the running buffer [1×HBS-P (GE Healthcare)+0.5% BSA] were flowed over the chip and IL-13Rα1/IL-13Rα2 were regenerated by using one 60 second injections of 7 mM glycine (pH 3.0).

[6] = target: human interleukin 13 receptor alpha 1 (IL-13Rα1), biotinylated ectodomain (human) (UniProt P78552); assay: SPR (Biacore T100), biotinylated receptor on SA chip, equilibrium KD
[7] = target: T1, human interleukin 13 receptor alpha 2 …; assay: SPR, kinetic fit
Description: as §1

[8] = target: T1, human interleukin 13 receptor alpha 2 …; assay: SPR (Biacore T100), biotinylated receptor on SA chip, equilibrium KD
Description: as §1

Molecule	Kd [2]	koff [2]	kon [2]	Kd [5]	koff [5]	kon [5]	Kd [6]	further results
wild-type human IL-13 (from UniProt P35225 34-146) (ligand)	4.38 nM	0.022 s⁻¹	5.21e+06 M⁻¹ s⁻¹					Kd [1]: 4.38 nM; koff [1]: 0.022 s⁻¹; kon [1]: 5.21e+06 M⁻¹ s⁻¹
Isotype Control (antibody)								% of cells in the PE gate [3]: 0.035%; % of cells in the PE gate [4]: 0.042%
IL-13 variant C4 (L10V, K89R, L101N, K105E, R108T) (ligand, the first is used here; also called polypeptide C4) PGPVPPSTAVRELIEELVNITQNQKAPLCNGSMVWSINLTAGMYCAALESLINVSGCSAIEKTQRMLSGFCPHKVSAGQFSSLHVRDTRIEVAQFVKDLLNHLKELFTEGQFNHHHHHH				0.393 nM	0.000764 s⁻¹	1.94e+06 M⁻¹ s⁻¹	36000 nM	
IL-13 variant D7 (IL-13Rα2-selective IL-13 superkine; L10A, V18F, R86K, D87K, K89R, L101I, K104R, R108K) (ligand, the first is used here; also called polypeptide D7) PGPVPPSTAARELIEELFNITQNQKAPLCNGSMVWSINLTAGMYCAALESLINVSGCSAIEKTKRMLSGFCPHKVSAGQFPSLHVKKTRIEVAQFVKDLLIHLRKLFKEGQFNHHHHHH				0.003 nM	5.37e-05 s⁻¹	1.77e+07 M⁻¹ s⁻¹	4100 nM	
IL-13 variant C11 (IL-13Rα2-selective IL-13 superkine; L10H, R86T, D87G, T88R, R108K) (ligand, the first is used here; Made in insect Hi5 cells; also called polypeptide C11) PGPVPPSTAHRELIEELVNITQNQKAPLCNGSMVWSINLTAGMYCAALESLINVSGCSAIEKTQRMLSGFCPHKVSAGQFSSLHVTGRKIEVAQFVKDLLLHLKKLFKEGQFNHHHHHH				0.0001 nM	9.18e-07 s⁻¹	6.41e+06 M⁻¹ s⁻¹	1600 nM	
A7 (ligand, also called IL-13 variant A7 (L10I, V18I, D87G, T88S, L101H, K104R, K105A)) cytokine: PGPVPPSTAIRELIEELINITQNQKAPLCNGSMVWSINLTAGMYCAALESLINVSGCSAIEKTQRMLSGFCPHKVSAGQFSSLHVRGSKIEVAQFVKDLLHHLRALFREGQFN	1.18 nM	0.0034 s⁻¹	2.9e+06 M⁻¹ s⁻¹	0.218 nM	0.0041 s⁻¹	1.8e+07 M⁻¹ s⁻¹		
IL-13dn (ligand, also called IL13dn (L10V, E12A, V18I, R65D, D87S, T88S, L101F, K104R, K105T)) cytokine: PGPVPPSTAVRALIEELINITQNQKAPLCNGSMVWSINLTAGMYCAALESLINVSGCSAIEKTQDMLSGFCPHKVSAGQFSSLHVRSSKIEVAQFVKDLLFHLRTLFREGQFN								Kd [1]: 0.084 nM; koff [1]: 0.0013 s⁻¹; kon [1]: 1.64e+07 M⁻¹ s⁻¹; Kd [7]: 0.391 nM; koff [7]: 0.006 s⁻¹; kon [7]: 1.62e+07 M⁻¹ s⁻¹
C9 (ligand, also called IL-13 variant C9 (L10H, R11L, V18I, R86K, D87E, K89R, L101N, K105T, R108K)) cytokine: PGPVPPSTAHLELIEELINITQNQKAPLCNGSMVWSINLTAGMYCAALESLINVSGCSAIEKTQRMLSGFCPHKVSAGQFSSLHVKETRIEVAQFVKDLLNHLKTLFKEGQFN				0.259 nM	0.000529 s⁻¹	2.03e+06 M⁻¹ s⁻¹	31000 nM	
A5 (ligand, also called IL-13 variant A5 (R11I, V18I, R86K, D87G, T88S, L101H, K104R, K105A, F107M)) cytokine: PGPVPPSTALIELIEELINITQNQKAPLCNGSMVWSINLTAGMYCAALESLINVSGCSAIEKTQRMLSGFCPHKVSAGQFSSLHVKGSKIEVAQFVKDLLHHLRALMREGQFN	2.94 nM	0.0082 s⁻¹	2.8e+06 M⁻¹ s⁻¹					Kd [8]: 50 nM
C10 (ligand, also called IL-13 variant C10 (L10H, R11L, V18I, R86M, K89R, R108K)) cytokine: PGPVPPSTAHLELIEELINITQNQKAPLCNGSMVWSINLTAGMYCAALESLINVSGCSAIEKTQRMLSGFCPHKVSAGQFSSLHVMDTRIEVAQFVKDLLLHLKKLFKEGQFN				5 nM	0.0061 s⁻¹	1.19e+06 M⁻¹ s⁻¹	264 nM	
C2 (ligand, also called IL-13 variant C2 (L10D, R11I, V18I, R86K, D87K, K89R, R108K)) cytokine: PGPVPPSTADIELIEELINITQNQKAPLCNGSMVWSINLTAGMYCAALESLINVSGCSAIEKTQRMLSGFCPHKVSAGQFSSLHVKKTRIEVAQFVKDLLLHLKKLFKEGQFN				0.025 nM	0.00015 s⁻¹	6.6e+06 M⁻¹ s⁻¹	4000 nM	
C7 (ligand, also called IL-13 variant C7 (R11S, I14M, T88S, L101N, K105A, R108K)) cytokine: PGPVPPSTALSELMEELVNITQNQKAPLCNGSMVWSINLTAGMYCAALESLINVSGCSAIEKTQRMLSGFCPHKVSAGQFSSLHVRDSKIEVAQFVKDLLNHLKALFKEGQFN				0.272 nM	0.00057 s⁻¹	2.1e+06 M⁻¹ s⁻¹	35000 nM	
A11 (ligand, also called IL-13 variant A11 (L10V, V18I, D87S, T88S, L101F, K104R, K105T)) cytokine: PGPVPPSTAVRELIEELINITQNQKAPLCNGSMVWSINLTAGMYCAALESLINVSGCSAIEKTQRMLSGFCPHKVSAGQFSSLHVRSSKIEVAQFVKDLLFHLRTLFREGQFN	0.084 nM	0.0013 s⁻¹	1.64e+07 M⁻¹ s⁻¹	0.391 nM	0.006 s⁻¹	1.62e+07 M⁻¹ s⁻¹		
C3 (ligand, also called IL-13 variant C3 (L10A, R86T, D87G, T88K, K89R, L101N, K104R, K105A, R108K)) cytokine: PGPVPPSTAARELIEELVNITQNQKAPLCNGSMVWSINLTAGMYCAALESLINVSGCSAIEKTQRMLSGFCPHKVSAGQFSSLHVTGKRIEVAQFVKDLLNHLRALFKEGQFN				0.379 nM	0.002 s⁻¹	6e+06 M⁻¹ s⁻¹	16000 nM	
A8 (ligand, also called IL-13 variant A8 (L10I, V18I, D87S, T88S, K89R, L101H, K104R, K105T)) cytokine: PGPVPPSTAIRELIEELINITQNQKAPLCNGSMVWSINLTAGMYCAALESLINVSGCSAIEKTQRMLSGFCPHKVSAGQFSSLHVRSSRIEVAQFVKDLLHHLRTLFREGQFN	2.06 nM	0.0033 s⁻¹	1.64e+06 M⁻¹ s⁻¹	0.263 nM	0.0026 s⁻¹	1.01e+07 M⁻¹ s⁻¹		
B6 (ligand, the sheet prints K at position 89 (same as wild type); also called IL-13 variant B6 (L10T, V18I, D87G, T88S, L101Y, K104R, K105T)) cytokine: PGPVPPSTATRELIEELINITQNQKAPLCNGSMVWSINLTAGMYCAALESLINVSGCSAIEKTQRMLSGFCPHKVSAGQFSSLHVRGSKIEVAQFVKDLLYHLRTLFREGQFN	5.9 nM	0.0082 s⁻¹	1.4e+06 M⁻¹ s⁻¹					Kd [8]: 53 nM
A6 (ligand, also called IL-13 variant A6 (L10I, V18L, R86M, D87K, T88S, L101H, K104R, K105A)) cytokine: PGPVPPSTAIRELIEELLNITQNQKAPLCNGSMVWSINLTAGMYCAALESLINVSGCSAIEKTQRMLSGFCPHKVSAGQFSSLHVMKSKIEVAQFVKDLLHHLRALFREGQFN	1.9 nM	0.0033 s⁻¹	1.77e+06 M⁻¹ s⁻¹	0.267 nM	0.0028 s⁻¹	1.07e+07 M⁻¹ s⁻¹		
B2 (ligand, also called IL-13 variant B2 (V18I, R86T, D87G, T88S, L101Y, K104R, K105A)) cytokine: PGPVPPSTALRELIEELINITQNQKAPLCNGSMVWSINLTAGMYCAALESLINVSGCSAIEKTQRMLSGFCPHKVSAGQFSSLHVTGSKIEVAQFVKDLLYHLRALFREGQFN	0.275 nM	0.0017 s⁻¹	6.3e+06 M⁻¹ s⁻¹	1.5 nM	0.01 s⁻¹	7.8e+06 M⁻¹ s⁻¹		
C12 (ligand, also called IL-13 variant C12 (L10H, R86M, T88S, K89R, L101N, K104R, K105A, R108K)) cytokine: PGPVPPSTAHRELIEELVNITQNQKAPLCNGSMVWSINLTAGMYCAALESLINVSGCSAIEKTQRMLSGFCPHKVSAGQFSSLHVMDSRIEVAQFVKDLLNHLRALFKEGQFN				0.053 nM	0.000404 s⁻¹	7.61e+06 M⁻¹ s⁻¹	15000 nM	
IL-13 variant B4 (R11S, V18I, R86K, D87G, T88S, K89M, L101Y, K104R, K105T) (ligand, also called polypeptide B4) PGPVPPSTALSELIEELINITQNQKAPLCNGSMVWSINPTAGMYCAALESLINVSGCSAIEKTQRMLSGFCPHKVAAGQFSSLHDKGSMIEVAQFVKDLLYHLRTLFREGQFNHHHHHH	18 nM	0.024 s⁻¹	1.36e+06 M⁻¹ s⁻¹					Kd [8]: 108 nM
